Experimental data from patent US20200317768A1 (published 2020).

T1: cynomolgus monkey FcγRIIa2 extracellular domain, C-terminal His-tag (cynomolgus monkey)
T1 construct: also called cyno FcγRIIa2; cynoFcgRIIa2; not shown: His-tag added to C-terminus
T1 chain: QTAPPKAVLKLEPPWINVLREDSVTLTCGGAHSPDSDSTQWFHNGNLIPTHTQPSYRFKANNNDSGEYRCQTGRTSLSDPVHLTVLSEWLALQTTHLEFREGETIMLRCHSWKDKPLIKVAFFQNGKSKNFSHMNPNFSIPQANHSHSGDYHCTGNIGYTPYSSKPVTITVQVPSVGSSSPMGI

T2: human FcγRIIaR extracellular domain, C-terminal His-tag (human, UniProt P12318 34-217)
T2 construct: also called human FcγRIIa (type R); FcgRIIaR; not shown: His-tag added to C-terminus
T2 chain: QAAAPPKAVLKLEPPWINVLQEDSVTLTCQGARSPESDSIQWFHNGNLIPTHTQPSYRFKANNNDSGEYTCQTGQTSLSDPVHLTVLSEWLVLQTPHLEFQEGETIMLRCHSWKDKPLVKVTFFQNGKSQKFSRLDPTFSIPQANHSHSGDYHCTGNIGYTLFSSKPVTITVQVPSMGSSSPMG

T3: cynomolgus monkey FcγRIIa3 extracellular domain, C-terminal His-tag (cynomolgus monkey)
T3 construct: also called cyno FcγRIIa3; cynoFcgRIIa3; not shown: His-tag added to C-terminus
T3 chain: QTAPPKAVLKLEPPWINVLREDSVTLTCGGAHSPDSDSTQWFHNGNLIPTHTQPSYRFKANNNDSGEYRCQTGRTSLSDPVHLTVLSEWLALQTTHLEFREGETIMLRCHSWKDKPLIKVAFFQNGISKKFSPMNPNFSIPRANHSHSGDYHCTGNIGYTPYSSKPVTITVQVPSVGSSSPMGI

T4: human FcγRIIaH extracellular domain, C-terminal His-tag (human, UniProt P12318 34-217)
T4 construct: also called human FcγRIIa (type H); FcgRIIaH; not shown: His-tag added to C-terminus
T4 sequence: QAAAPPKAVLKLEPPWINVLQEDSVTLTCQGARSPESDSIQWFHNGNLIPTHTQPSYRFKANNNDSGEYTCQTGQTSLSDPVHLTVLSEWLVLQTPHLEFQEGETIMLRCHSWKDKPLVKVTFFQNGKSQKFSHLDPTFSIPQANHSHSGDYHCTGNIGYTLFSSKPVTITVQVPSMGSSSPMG

T5: cynomolgus monkey FcγRIIa1 extracellular domain, C-terminal His-tag (cynomolgus monkey)
T5 construct: also called cyno FcγRIIa1; cynoFcgRIIa1; not shown: His-tag added to C-terminus
T5 chain: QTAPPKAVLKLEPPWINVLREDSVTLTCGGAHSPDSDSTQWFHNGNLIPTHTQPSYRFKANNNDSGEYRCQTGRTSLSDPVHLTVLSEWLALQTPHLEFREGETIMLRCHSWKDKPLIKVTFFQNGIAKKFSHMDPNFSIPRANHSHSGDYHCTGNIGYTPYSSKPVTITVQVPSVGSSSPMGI

T6: cynomolgus monkey FcγRIIb extracellular domain, C-terminal His-tag (cynomolgus monkey)
T6 construct: also called cyno FcγRIIb; cynoFcγRIIb; not shown: His-tag added to C-terminus
T6 chain: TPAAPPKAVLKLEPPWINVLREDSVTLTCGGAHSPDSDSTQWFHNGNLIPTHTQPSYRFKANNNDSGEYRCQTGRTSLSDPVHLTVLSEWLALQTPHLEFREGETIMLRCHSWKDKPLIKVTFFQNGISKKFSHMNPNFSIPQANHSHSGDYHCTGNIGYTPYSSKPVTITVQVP

T7: human FcγRIIb extracellular domain, C-terminal His-tag (human, UniProt P31994 43-217)
T7 construct: also called humanFcgRIIb; not shown: His-tag added to C-terminus
T7 sequence: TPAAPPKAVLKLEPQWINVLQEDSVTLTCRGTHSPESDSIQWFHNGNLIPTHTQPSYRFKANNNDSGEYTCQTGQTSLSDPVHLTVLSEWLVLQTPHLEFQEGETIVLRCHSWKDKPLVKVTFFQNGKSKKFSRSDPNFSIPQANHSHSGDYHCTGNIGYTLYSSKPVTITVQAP


Experiments:
[1] = biological target: T1, cynomolgus monkey FcγRIIa2 …; experiment: SPR (BIACORE), antibody captured, FcγR analyte
Protocol: (§1) The kinetic analysis of interactions between these antibodies and FcγR was carried out using BIACORE® T200 or BIACORE® 4000 (GE Healthcare). HBS-EP+ (GE Healthcare) was used as the running buffer, and the measurement temperature was set to 25° C. A chip produced by immobilizing Protein A. Protein A/G or mouse anti-human IgG kappa light chain (BD Biosciences) onto a Series S Sensor Chip CM4 or CM5 (GE Healthcare) by the amine-coupling method was used. […] After the measurement, the antibody captured on the chip was washed off by allowing reaction with 10 mM glycine-HCl, pH1.5 and 25 mM NaOH so that the chip was regenerated and used repeatedly. The sensorgrams obtained as measurement results were analyzed by the 1:1 Langmuir binding model using the BIACORE® Evaluation Software to calculate the binding rate constant ka (L/mol/s) and dissociation rate constant kd (l/s), and the dissociation constant KD (mol/L) was calculated from these values. […] Regarding such interactions, KD values were calculated using the following 1:1 binding model described in BIACORE® T100 Software Handbook BR1006-48 Edition AE.

[2] = biological target: T2, human FcγRIIaR extracellular domain, …; experiment: SPR (BIACORE), antibody captured, FcγR analyte
Protocol: as §1

[3] = biological target: T3, cynomolgus monkey FcγRIIa3 …; experiment: SPR (BIACORE), antibody captured, FcγR analyte
Protocol: as §1

[4] = biological target: T4, human FcγRIIaH extracellular domain, …; experiment: SPR (BIACORE), antibody captured, FcγR analyte
Protocol: as §1

[5] = biological target: T5, cynomolgus monkey FcγRIIa1 …; experiment: SPR (BIACORE), antibody captured, FcγR analyte
Protocol: as §1

[6] = biological target: T6, cynomolgus monkey FcγRIIb extracellular …; experiment: SPR (BIACORE), antibody captured, FcγR analyte
Protocol: as §1

[7] = biological target: T8, human FcγRIIIaV extracellular domain, C-terminal His-tag (human, UniProt P08637 17-208); experiment: SPR (BIACORE), antibody captured, FcγR analyte
T8 construct: also called FcgRIIIaV; not shown: His-tag added to C-terminus
T8 sequence (P08637 17-208 F176V): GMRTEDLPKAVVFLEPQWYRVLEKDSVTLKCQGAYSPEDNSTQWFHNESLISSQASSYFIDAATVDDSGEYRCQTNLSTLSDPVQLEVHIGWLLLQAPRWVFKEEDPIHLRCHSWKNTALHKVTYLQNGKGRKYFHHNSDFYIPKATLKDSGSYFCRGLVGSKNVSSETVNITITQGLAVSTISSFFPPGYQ
Protocol: as §1

[8] = biological target: T7, human FcγRIIb extracellular domain, …; experiment: SPR (BIACORE), antibody captured, FcγR analyte
Protocol: as §1

[9] = biological target: T9, cynomolgus monkey FcγRIIIaS extracellular domain, C-terminal His-tag (cynomolgus monkey, UniProt A3RFZ7 21-206 (rhesus entry)); experiment: SPR (BIACORE), antibody captured, FcγR analyte
T9 construct: also called cyno FcγRIIIaS; cynoFcγRIIIaS; not shown: His-tag added to C-terminus
T9 sequence (A3RFZ7 21-206): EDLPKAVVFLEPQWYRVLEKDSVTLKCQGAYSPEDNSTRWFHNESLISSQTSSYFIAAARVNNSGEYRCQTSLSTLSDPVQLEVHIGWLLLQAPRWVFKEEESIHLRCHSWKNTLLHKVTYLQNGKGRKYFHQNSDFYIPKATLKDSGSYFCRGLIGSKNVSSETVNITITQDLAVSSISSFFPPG
Protocol: as §1

[10] = biological target: T1, cynomolgus monkey FcγRIIa2 …; experiment: SPR (BIACORE); KD of parent SG1 / KD of variant;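 further: relative to parent M103205H795-SG1 carrying the SG1 human heavy chain constant region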
Protocol: as §1

[11] = biological target: T2, human FcγRIIaR extracellular domain, …; experiment: SPR (BIACORE); KD of parent SG1 / KD of variant;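 further: relative to parent M103205H795-SG1 carrying the SG1 human heavy chain constant region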
Protocol: as §1

[12] = biological target: T3, cynomolgus monkey FcγRIIa3 …; experiment: SPR (BIACORE); KD of parent SG1 / KD of variant;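 further: relative to parent M103205H795-SG1 carrying the SG1 human heavy chain constant region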
Protocol: as §1

[13] = biological target: T4, human FcγRIIaH extracellular domain, …; experiment: SPR (BIACORE); KD of parent SG1 / KD of variant;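 further: relative to parent M103205H795-SG1 carrying the SG1 human heavy chain constant region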
Protocol: as §1

[14] = biological target: T5, cynomolgus monkey FcγRIIa1 …; experiment: SPR (BIACORE); KD of parent SG1 / KD of variant
Protocol: as §1

[15] = biological target: T6, cynomolgus monkey FcγRIIb extracellular …; experiment: SPR (BIACORE); KD of parent SG1 / KD of variant
Protocol: as §1

[16] = biological target: T8, human FcγRIIIaV extracellular domain, …; experiment: SPR (BIACORE); KD of parent SG1 / KD of variant
Protocol: as §1

[17] = biological target: T7, human FcγRIIb extracellular domain, …; experiment: SPR (BIACORE); KD of parent SG1 / KD of variant
Protocol: as §1

[18] = biological target: T9, cynomolgus monkey FcγRIIIaS …; experiment: SPR (BIACORE); KD of parent SG1 / KD of variant
Protocol: as §1

| Kd [1] [nM] | Kd [2] [nM] | Kd [3] [nM] | Kd [4] [nM] | Kd [5] [nM] | Kd [6] [nM] | Kd [7] [nM] | Kd [8] [nM] | Kd [9] [nM] | KD fold (SG1 = 1) [10] [fold] | KD fold (SG1 = 1) [11] [fold] | KD fold (SG1 = 1) [12] [fold] | KD fold (SG1 = 1) [13] [fold] | KD fold (SG1 = 1) [14] [fold] | KD fold (SG1 = 1) [15] [fold] | KD fold (SG1 = 1) [16] [fold] | KD fold (SG1 = 1) [17] [fold] | KD fold (SG1 = 1) [18] [fold] | Binder |
| --- | --- | --- | --- | --- | --- | --- | --- | --- | --- | --- | --- | --- | --- | --- | --- | --- | --- | --- |
| 1500 | 1000 | 3000 | 1200 | 1800 | 500 | 12000 | 1200 | 4400 | 3 | 1 | 2.9 | 0.7 | 2.6 | 3.9 | 0.05 | 3.9 | 0.06 | M103205H795-SG1033 / M103202L889-SK1 (antibody, human IgG1, kappa, CH with G236N/H268D/A330K/N434A against SG1 (EU numbering); also called MS1032LO06-SG1033) heavy: QVTLKESGPVLVKPTETLTLTCTVSGIDLSHDDISWVRQAPGKGLEWVGIISYAGSTYYASWAKGRLTISKDTSKNQVVLTMTNMDPVDTATYYCARGVPAYSHGGDLWGQGTLVTVSSASTKGPSVFPLAPSSKSTSGGTAALGCLVKDYFPEPVTVSWNSGALTSGVHTFPAVLQSSGLYSLSSVVTVPSSSLGTQTYICNVNHKPSNTKVDKKVEPKSCDKTHTCPPCPAPELLNGPSVFLFPPKPKDTLMISRTPEVTCVVVDVSDEDPEVKFNWYVDGVEVHNAKTKPREEQYNSTYRVVSVLTVLHQDWLNGKEYKCKVSNKALPKPIEKTISKAKGQPREPQVYTLPPSREEMTKNQVSLTCLVKGFYPSDIAVEWESNGQPENNYKTTPPVLDSDGSFFLYSKLTVDKSRWQQGNVFSCSVMHEALHAHYTQKSLSLSP light: DIVMTQSPATLSLSPGERATLSCTSSQSVYHANWLSWFQQKPGQPPKLLIYWASTLAYGVPSRFSGSGSGTDFTLTISSLQPEDAATYYCAGGYGGGRYAFGQGTKVEIKRTVAAPSVFIFPPSDEQLKSGTASVVCLLNNFYPREAKVQWKVDNALQSGNSQESVTEQDSKDSTYSLSSTLTLSKADYEKHKVYACEVTHQGLSSPVTKSFNRGEC |
| 4100 | 960 | 6600 | 970 | 8800 | 1700 | 580 | 3800 | 260 | 1 | 1 | 1 | 1 | 1 | 1 | 1 | 1 | 1 | MS_M103240H795-SG1/M103202L1045-SK1 (antibody, human IgG1, kappa, Parent of the MS1032LO19 Fc variants; also called MS1032LO19-SG1; MS103240H795-SG1) heavy: not shown light: DIVMTQSPATLSLSPGERATLSCTTSQSVYHENWLSWFQQKPGQPPKLLIYWASTLAYGVPSRFSGSGSGTDFTLTISSLQPEDAATYYCAGGYGGGRYAFGQGTKVEIKRTVAAPSVFIFPPSDEQLKSGTASVVCLLNNFYPREAKVQWKVDNALQSGNSQESVTEQDSKDSTYSLSSTLTLSKADYEKHKVYACEVTHQGLSSPVTKSFNRGEC |
| 2700 | 250 | 4200 | 810 | 8100 | 880 | 7100 | 2600 | 2200 | 1.7 | 4.1 | 2 | 2.9 | 1.5 | 2.2 | 0.09 | 1.8 | 0.15 | M103205H795-SG1034 / M103202L889-SK1 (antibody, human IgG1, kappa, CH with G236T/H268D/Q311R/A330K/D413K/N434A against SG1 (EU numbering); also called MS1032LO06-SG1034) heavy: QVTLKESGPVLVKPTETLTLTCTVSGIDLSHDDISWVRQAPGKGLEWVGIISYAGSTYYASWAKGRLTISKDTSKNQVVLTMTNMDPVDTATYYCARGVPAYSHGGDLWGQGTLVTVSSASTKGPSVFPLAPSSKSTSGGTAALGCLVKDYFPEPVTVSWNSGALTSGVHTFPAVLQSSGLYSLSSVVTVPSSSLGTQTYICNVNHKPSNTKVDKKVEPKSCDKTHTCPPCPAPELLTGPSVFLFPPKPKDTLMISRTPEVTCVVVDVSDEDPEVKFNWYVDGVEVHNAKTKPREEQYNSTYRVVSVLTVLHRDWLNGKEYKCKVSNKALPKPIEKTISKAKGQPREPQVYTLPPSREEMTKNQVSLTCLVKGFYPSDIAVEWESNGQPENNYKTTPPVLDSDGSFFLYSKLTVKKSRWQQGNVFSCSVMHEALHAHYTQKSLSLSP light: DIVMTQSPATLSLSPGERATLSCTSSQSVYHANWLSWFQQKPGQPPKLLIYWASTLAYGVPSRFSGSGSGTDFTLTISSLQPEDAATYYCAGGYGGGRYAFGQGTKVEIKRTVAAPSVFIFPPSDEQLKSGTASVVCLLNNFYPREAKVQWKVDNALQSGNSQESVTEQDSKDSTYSLSSTLTLSKADYEKHKVYACEVTHQGLSSPVTKSFNRGEC |
